Results from the nanobody polyreactivity screen of Harvey et al. (2022).

Assay: yeast display, Sf9 membrane polyspecificity reagent, FACS + sequencing; frameworks hold sequencing errors
In short: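 Genes from sorted yeast were amplified by colony PCR, read by MiSeq 2 × 250 sequencing and filtered on CDR length. These cells carried a synthetic nanobody library in Saccharomyces cerevisiae BJ5465 and were sorted by FACS into low and high (top ~1%) gates on anti-HA and streptavidin fluorescence. Polyreactivity is labelled according to the gate of origin.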

Sequence	polyreactivity (PSR sort gate)
QVQLVESGGGLVQAGGSLRLSCAASGSIFVFYAMGWYRQAPGKERELVASITRSGVSTYYADSVKGRFTISRDNAKNTVYLQMNSLKPEDTAVYYCNVYKGNVVEHDYWGQGTQVTVSS	high polyreactivity
QVQLVESGGGLVQAGGSLRLSCAASGRILVSYAMGWYRQAPGKERELVAAISRSGGSTYYADSVKGRFTISRDNAKNTVYLQMNSLKPEDTAVYYCNVYRFSRYDYWGQGTQVTVSS	high polyreactivity
QVQLVESGGGLVQAGGSLRLSCAASGSIFSYYAMAWYRHAPGKEREMVAAITSGGATTYYADSVKGRFTISRDNAKNTVYLQMNSLKQEDTAVYFCAAGYYVYFRWWELDYWGQGTQVTVSS	low polyreactivity
QVQLVESGGGLVQAGGSLRLSCAASGSTFWVYAMGWYRQAPGKERELVAGISNSGGNTYYADSVKGRFTISRDNAKNTVYLQMNSLKPEDTAVYYCNVDRGNPVPPSEYWGQGTQVSVSS	low polyreactivity
QVQLVESGGGLVQAGGRLGLSCAASGRSFPWYTMGWYRQATGKERELVAAISSSGSTTYYADSVNGRFTISRDNAKITVYLQMNSLKPEDTAVYYCNKADPPEYDYWGQGTPVTVSS	high polyreactivity
QVQLVESGGGLVQAGGSLRLSCAASGRTFRYYAMGWYRQAPGKERELVAAITVRTGSTSYADSVKGRFTISRDNAKNTVYLQMNSLKPEDTAVYYCAATSRYFQPPGYGGGRIGYGYWGQGTQVTVSS	high polyreactivity
QVQLVESGGGLVQAGGSLRLSCAASGRIFRYYAMGWYRQAPGKERELVASITSGARTSYADSVKGRFTISRDNAKNTVYLQMNSLKPEDTAVYYCAPGYSYSPGRMGYWGQGTQVTVSS	high polyreactivity
QVQLVESGGGLVQAGGSLRLSCAASGLTFESYAMGWYRQAPGKERELVAGIDWSGGSTYYADSVKGRFTISRDNAKNTVYLQMNSLKPEDTAGYYCKRYGNSNYFAPGPLYNYWGQGTQVTVSS	high polyreactivity
QVQLVESGVGLVQAGGSLRLSCAASGSIFGVNMGWYRQAPGKERELVASITSGGSTNYADSVKGRFTISRDNAKNTVYLQMNSLKPEDTAVYYCATDRYVWGQGTQVTVSS	low polyreactivity
QVQLVESGGGLVQAGGSLRLSCAASGRTFGWYTMGWYRHAPGKERELVAAISRSGTSTYYADSVKGRFTISRDNAKNTVYLQMHSLKPEDTAVYYCAQYVNARGGNDWGQGTLVTVSS	high polyreactivity
QVQLVESGGGLVQAGGSLRLSCAASGSIFQGNAMGWYRQAPGKERELVAAISQSGGRTYYADSVKGRFTITRDNAKNTVYLQMNSLKPEDTAVYYCNTTKVYRLRFDYWGQGTQVTVSS	low polyreactivity
QVQLVESGGGLVQAGGSLRLSCAASGIRFAQYTMGGYRQAHGKESELVAAINRNGGSTYYADSVKGRFTISRDNAKNTVYLQMNSLKPEDTPVYYCNADALGFRYDYWGQGTQVTVSS	low polyreactivity
QVQLVESGGGLVQAGGSLRLSCAASGRIFRLYAMGWYRQAPGKERELVAAIRSATRTTYADSVKGRFTISRDNAKNTVYLQMNSLKPEDTAFYYCAARLWRYSDVSKYYSWGQGTQVTVSS	high polyreactivity
QVQLVESGGGLVQAGGSLRLSCAASGFTIDAYAMGWYRQAPGKDRELVAAISGSGGSTYYADSVKGRFTISRDNAKNTVYLQMNSLKPEDTALYYCAKDPGPYDYDYWGQGTQVTVSS	low polyreactivity
QVQLVESGGGLVQAGGSLRLSCAASGSIFLFNAMGWYRQAPGKERELVAAINRDDSTYYADSVKGRFTISRDNAKNTVYLLMISLKPEDTAVYYCAAPVLHAYYGYGYWGQGTQVTVSS	low polyreactivity
QVQLVESGGGLVQAGGSLRLSCAASGRTFHGYAMGWYRQAPGKERELVARINWSDGRTYYADSVKGRFTISRDNAKNTVYLQMNSLKPVDTAVYYCAADKNVSYAPAWFYYWGQGTQVTVSS	low polyreactivity

Sequence	polyreactivity (PSR sort gate)
QVQLVESGGGLVQAGGILRLSCDASGSTFVLYAMGWYRQAPGKERELVAAIRKSGGSTYYADSVKGRFTISRDNAKIYVYLQMNSLKPEDTAVYYCNATNYIYEYHYWGQGTQVTVSS	low polyreactivity
QVQLVESGGGLVQAGGSLRLSCAASGRIFRYYAMGWYRQAPVKDRELVARINIGGSTYYADSVKGRFTISRDNAKNTVYLKMNSLLREDTAVYYCAAVPRPVSRTIWGDYWGEGTQVTVSS	high polyreactivity
QVQLVESGGGLVQAGGSLRLSCAASGSIFIINAMGWYRQAPGKERELVAAITTSGGRTYYADSVKGRFTISRDNAKNTVYLQMNSLKPEDTAVYSCASSHYGSTGNYWGQGTQVTVSS	low polyreactivity
QVQLVESGGGLVQAGGSLRLSCAASGTFAFYTMGWYRPAPGKERELVAAISWDGGDTYYADSVKGRFTISRDNAKNTVYLQMNSLKPEDTAVYYCAADYSNSGYGYWGQGTQVTVSS	low polyreactivity
QVHRGETGGGLVQAGGSLRLSCSASGLSFPHYAMGWYRQAPGKERDLVADINLSGGSNTYYADSVKGRFTISRDNAKNTVYLMMNSLKPEDTPVYDCNAVSWENWYHIMDYWGQGTQVTVSS	high polyreactivity
QVQLVESGGGLVQAGGSLRLSCAASGSTFRGYAMGWYRQAPGKERELVAAISRADITNYADSVKGRFTISRDNAKNTVYLQMNSLKPEDTAVYYCNAGVGARESDYWGQGTQVTVSS	low polyreactivity
QVQLVESGGGLVQAGGSLRLSCAASGLIFPYYVMGWYRQAPGKERELVAAITWSGGRTYYADSVKGRFTISRDNAKNTVSLQMNSLKPEDTAVYYCAATYWTIDYWGQGTQVTVSS	low polyreactivity
QVQLVESGGGLVQAGGSLRLSCAASGFTFWSYAMGWYRQAPGKERELVAGITIDGNTYYADSVKGRFTISRDNAKNTVYLQMNSLKPEDTAVYYCATPVYRSTYEYDYWGQGTQVTVSS	low polyreactivity
QVQLQERSGGLVQAGGSLRLSCAASGYIFNNVNMGWYSQSPGKEREFVAAVGSGSSTNYADSVKGRFTISRDNTKNTGYLHMNSLKPEDTAVYYCNAVRRTGGHGDYWGLGTQVTVSS	high polyreactivity
QVQLEESGGGLVQAGGSLRLSCSASGRIFIKYAMGWYRQAPGKEREFVAAISGRGGSTYYADSVKGRFTISRDNAKNTVYLQMNSLKPEDTAVYYWAKRFFSTGTAAGMYYWGQGTQVTVSS	high polyreactivity
QVQLVESGGGLVQAGGSLRLSCDASGRTFLRNTMGWYRQAPGKERELVAAISRSGATTYYADSVKGRFTISRDNAKNTVYLQMNTLKPEDTADYYCAAAYRGREVEYNSWGQGTQVTVSS	high polyreactivity
QVQLVESGGGLVQAGGSLRLSCAASGITFKRYAMGWYRQAPGKERELVAAINGSGGRTYYADSVKGRFTISRDNAKNTVYLQMNSLKPEDTAVYYCNARHIYPSHYDYWGQGTQVTVSS	high polyreactivity
QVQLEESGGGLVQAGGSLRLSCAASGFIFGYYAMGSYRQAPGKERELVAAISKSGGRTRYADSVKGRFTISRDNAKNTVYLQMNSLKPVDTAVYYCATYDPARSTQGYDYWGQGTQVTVSS	high polyreactivity
QVQLVESGGGLVQAGGSLRLSCAASGSIFATNSMGWYRQAPGKERELVAAISRSGASTYYADSVKGRFTISRDNAKNTVYLQMNSLKPEDTAVYYCNKVLYRDAYHSYCFDYWGQGTQVTVSS	high polyreactivity
QVPLVESGGGLVQAGGILRLSCAASGRTFRYNVMGCYRQAPGKERELVASISRISGSTYYADSVKGRFTISRDNAKNTVYLQMNSLKPEDTAVYYCAATVKLKHYPYVGFGYWGQGTQVTVSS	high polyreactivity
QVQLVESGGGLGQSGGSLRLSCAATGSTYKYNAMGWNRTAPGKERELVPAISRGGRTNYADSVKGRFTISRDNAKNTVYFQMNILKPEDTAVYYCAKDVAGLFHVGSLYYYWGQGTQVNVSS	low polyreactivity
